Experimental data as given in the supplement of paper PMC11246515.
± gives the standard deviation of the averaged measurements.

Assay: total protein half-life in vivo (active degradation + dilution); higher = more stable protein
[1] = E. coli NCM3722 delta-clpP, growth: N-lim chemostat, doubling time 6 h
[2] = E. coli NCM3722 delta-hslV, growth: N-lim chemostat, doubling time 6 h
[3] = E. coli NCM3722 delta-lon, growth: N-lim chemostat, doubling time 6 h
[4] = E. coli NCM3722 delta-smpB, growth: N-lim chemostat, doubling time 6 h
[5] = wild type E. coli NCM3722, growth: C-lim chemostat, doubling time 3 h
[6] = wild type E. coli NCM3722, growth: C-lim chemostat, doubling time 6 h
[7] = wild type E. coli NCM3722, growth: C-lim chemostat, doubling time 12 h
[8] = wild type E. coli NCM3722, growth: N-lim chemostat, doubling time 6 h
[9] = wild type E. coli NCM3722, growth: N-lim chemostat, doubling time 12 h
[10] = wild type E. coli NCM3722, growth: P-lim chemostat, doubling time 6 h
[11] = wild type E. coli NCM3722, growth: P-lim chemostat, doubling time 12 h
[12] = E. coli NCM3722 delta-clpP delta-lon delta-hslV, growth: N-lim chemostat, doubling time 6 h

Sequence | total protein half-life in vivo [1] | total protein half-life in vivo [2] | total protein half-life in vivo [3] | total protein half-life in vivo [4] | total protein half-life in vivo [5] | total protein half-life in vivo [6] | total protein half-life in vivo [7] | total protein half-life in vivo [8] | total protein half-life in vivo [9] | total protein half-life in vivo [10] | total protein half-life in vivo [11] | total protein half-life in vivo [12]
MENYLIDNLDRGILEALMGNARTAYAELAKQFGVSPGTIHVRVEKMKQAGIITGARIDVSPKQLGYDVGCFIGIILKSAKDYPSALAKLESLDEVTEAYYTTGHYSIFIKVMCRSIDALQHVLINKIQTIDEIQSTETLIVLQNPIMRTIKP [P0ACI6] | 5.95 h | 6.24 ± 1.1 h | 5.77 ± 0.21 h | 5.72 ± 0.49 h | 3.51 ± 0.15 h | 6.232 ± 0.029 h | 11.4 h | 5.85 ± 0.57 h | 11.6 ± 0.12 h | 6.94 ± 0.64 h | 13.2 ± 0.17 h | –
MKVMRTTVATVVAATLSMSAFSVFAEASLTGAGATFPAPVYAKWADTYQKETGNKVNYQGIGSSGGVKQIIANTVDFGASDAPLSDEKLAQEGLFQFPTVIGGVVLAVNIPGLKSGELVLDGKTLGDIYLGKIKKWDDEAIAKLNPGLKLPSQNIAVVRRADGSGTSFVFTSYLAKVNEEWKNNVGTGSTVKWPIGLGGKGNDGIAAFVQRLPGAIGYVEYAYAKQNNLAYTKLISADGKPVSPTEENFANAAKGADWSKTFAQDLTNQKGEDAWPITSTTFILIHKDQKKPEQGTEVLKFFDWAYKTGAKQANDLDYASLPDSVVEQVRAAWKTNIKDSSGKPLY [P0AG82] | 5.18 ± 0.54 h | 6.12 ± 0.3 h | 6.31 ± 0.76 h | 6.08 ± 0.12 h | 3.42 ± 0.057 h | 6.04 ± 0.31 h | 11.7 ± 0.42 h | 6.11 ± 0.43 h | 12.9 ± 0.66 h | 5.67 ± 0.093 h | 11.5 ± 0.23 h | 4.1 ± 0.22 h
MILHAQAKHGKPGLPWLVFLHGFSGDCHEWQEVGEAFADYSRLYVDLPGHGGSAAISVDGFDDVTDLLRKTLVSYNILDFWLVGYSLGGRVAMMAACQGLAGLCGVIVEGGHPGLQNAEQRAERQRSDRQWVQRFLTEPLTAVFADWYQQPVFASLNDDQRRELVALRSNNNGATLAAMLEATSLAVQPDLRANLSARTFAFYYLCGERDSKFRALAAELAADCHVIPRAGHNAHRENPAGVIASLAQILRF | – | – | – | – | 3.44 h | – | – | – | – | – | – | –
MSKVTPQPKIGFVSLGCPKNLVDSERILTELRTEGYDVVPSYDDADMVIVNTCGFIDSAVQESLEAIGEALNENGKVIVTGCLGAKEDQIREVHPKVLEITGPHSYEQVLEHVHHYVPKPKHNPFLSLVPEQGVKLTPRHYAYLKISEGCNHRCTFCIIPSMRGDLVSRPIGEVLSEAKRLVDAGVKEILVISQDTSAYGVDVKHRTGFHNGEPVKTSMVSLCEQLSKLGIWTRLHYVYPYPHVDDVIPLMAEGKILPYLDIPLQHASPRILKLMKRPGSVDRQLARIKQWREICPELTLRSTFIVGFPGETEEDFQMLLDFLKEARLDRVGCFKYSPVEGADANALPDQVPEEVKEERWNRFMQLQQQISAERLQEKVGREILVIIDEVDEEGAIGRSMADAPEIDGAVYLNGETNVKPGDILRVKVEHADEYDLWGSRV [P0AEI4] | 2.28 ± 0.062 h | 3.6 ± 0.089 h | 4.08 ± 0.84 h | 2.94 ± 0.053 h | 2.36 ± 0.54 h | 4.39 ± 0.39 h | 7.02 ± 1.1 h | 3.47 ± 0.46 h | 5.31 ± 0.15 h | 4.37 ± 0.28 h | 6.68 ± 0.64 h | 4.5 ± 0.2 h
